In patent US20230357348A1 (AstraZeneca / MedImmune, published 2023):
Values belong to the binder of their own block, whether it stands above or below them. Starred links: 1 amine or outer side, 2 acyl side, 3 side chain; linkers in the order of their positions; H or OH if unused. Non-standard residues stand in square brackets, D forms with d. Groups on a side chain read outwards from the residue. No end group written: not given here. *: point of attachment. C20 diacid = O=C(O)CCCCCCCCCCCCCCCCCCC(=O)*; C18 diacid = O=C(O)CCCCCCCCCCCCCCCCC(=O)*; γGlu = O=C(O)[C@H](CCC(=O)[*:2])N[*:1]; αMeF = C[C@](N)(Cc1ccccc1)C(=O)O; AEEA = NCCOCCOCC(=O)O; Aib = CC(C)(N)C(=O)O

Legend:
[1] = target: human glucagon receptor (hGCGR) (human, UniProt P47871 26-477); assay: cell-based or functional assay
Sequence of human glucagon receptor (hGCGR) (P47871 26-477): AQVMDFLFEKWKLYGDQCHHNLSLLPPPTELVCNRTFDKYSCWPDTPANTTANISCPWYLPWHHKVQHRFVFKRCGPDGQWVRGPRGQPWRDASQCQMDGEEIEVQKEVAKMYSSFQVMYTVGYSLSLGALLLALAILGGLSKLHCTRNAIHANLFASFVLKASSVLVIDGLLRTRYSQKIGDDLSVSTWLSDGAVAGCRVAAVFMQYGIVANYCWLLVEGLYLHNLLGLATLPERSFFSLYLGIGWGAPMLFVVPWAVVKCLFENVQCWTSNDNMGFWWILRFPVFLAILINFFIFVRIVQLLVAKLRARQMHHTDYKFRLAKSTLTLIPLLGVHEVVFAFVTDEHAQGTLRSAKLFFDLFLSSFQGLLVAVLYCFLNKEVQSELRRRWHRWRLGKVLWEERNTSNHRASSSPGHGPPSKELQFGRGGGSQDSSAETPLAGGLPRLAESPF

[2] = target: human GLP-1 receptor (hGLP-1R) (human, UniProt P43220 24-463); assay: cell-based or functional assay

- hGluc-R EC50 (pM) [1]: 396 pM
- hGLP-1R EC50 (pM) [2]: 69 pM
B1: Peptide 490 (peptide)
peptide: H[Aib]QGTFTSDVSK[αMeF]LDTK([AEEA-AEEA-γGlu-C20 diacid])RARDFVQWLL[Aib]TE-NH2
modifications: N-terminus assumed
SMILES: CC(C)C[C@H](NC(=O)[C@H](Cc1c[nH]c2ccccc12)NC(=O)[C@H](CCC(N)=O)NC(=O)[C@@H](NC(=O)[C@H](Cc1ccccc1)NC(=O)[C@H](CC(=O)O)NC(=O)[C@H](CCCNC(=N)N)NC(=O)[C@H](C)NC(=O)[C@H](CCCNC(=N)N)NC(=O)[C@H](CCCCNC(=O)COCCOCCNC(=O)COCCOCCNC(=O)CC[C@H](NC(=O)CCCCCCCCCCCCCCCCCCC(=O)O)C(=O)O)NC(=O)[C@@H](NC(=O)[C@H](CC(=O)O)NC(=O)[C@H](CC(C)C)NC(=O)[C@](C)(Cc1ccccc1)NC(=O)[C@H](CCCCN)NC(=O)[C@H](CO)NC(=O)[C@@H](NC(=O)[C@H](CC(=O)O)NC(=O)[C@H](CO)NC(=O)[C@@H](NC(=O)[C@H](Cc1ccccc1)NC(=O)[C@@H](NC(=O)CNC(=O)[C@H](CCC(N)=O)NC(=O)C(C)(C)NC(=O)[C@@H](N)Cc1c[nH]cn1)[C@@H](C)O)[C@@H](C)O)C(C)C)[C@@H](C)O)C(C)C)C(=O)N[C@@H](CC(C)C)C(=O)NC(C)(C)C(=O)N[C@H](C(=O)N[C@@H](CCC(=O)O)C(N)=O)[C@@H](C)O

- hGluc-R EC50 (pM) [1]: 301 pM
- hGLP-1R EC50 (pM) [2]: 202 pM
B2: Peptide 488 (peptide)
peptide: H[Aib]QGTFTSDVSK[αMeF]LDTK([AEEA-AEEA-γGlu-C20 diacid])RARDFVQWLL[Aib]TE-OH
modifications: N-terminus assumed
SMILES: CC(C)C[C@H](NC(=O)[C@H](Cc1c[nH]c2ccccc12)NC(=O)[C@H](CCC(N)=O)NC(=O)[C@@H](NC(=O)[C@H](Cc1ccccc1)NC(=O)[C@H](CC(=O)O)NC(=O)[C@H](CCCNC(=N)N)NC(=O)[C@H](C)NC(=O)[C@H](CCCNC(=N)N)NC(=O)[C@H](CCCCNC(=O)COCCOCCNC(=O)COCCOCCNC(=O)CC[C@H](NC(=O)CCCCCCCCCCCCCCCCCCC(=O)O)C(=O)O)NC(=O)[C@@H](NC(=O)[C@H](CC(=O)O)NC(=O)[C@H](CC(C)C)NC(=O)[C@](C)(Cc1ccccc1)NC(=O)[C@H](CCCCN)NC(=O)[C@H](CO)NC(=O)[C@@H](NC(=O)[C@H](CC(=O)O)NC(=O)[C@H](CO)NC(=O)[C@@H](NC(=O)[C@H](Cc1ccccc1)NC(=O)[C@@H](NC(=O)CNC(=O)[C@H](CCC(N)=O)NC(=O)C(C)(C)NC(=O)[C@@H](N)Cc1c[nH]cn1)[C@@H](C)O)[C@@H](C)O)C(C)C)[C@@H](C)O)C(C)C)C(=O)N[C@@H](CC(C)C)C(=O)NC(C)(C)C(=O)N[C@H](C(=O)N[C@@H](CCC(=O)O)C(=O)O)[C@@H](C)O

- hGluc-R EC50 (pM) [1]: 168 pM
- hGLP-1R EC50 (pM) [2]: 22.8 pM
B3: Peptide 489 (peptide)
peptide: H[Aib]QGTFTSDVSK[αMeF]LDTK([AEEA-AEEA-γGlu-C18 diacid])RARDFVQWLL[Aib]TE-NH2
modifications: N-terminus assumed
SMILES: CC(C)C[C@H](NC(=O)[C@H](Cc1c[nH]c2ccccc12)NC(=O)[C@H](CCC(N)=O)NC(=O)[C@@H](NC(=O)[C@H](Cc1ccccc1)NC(=O)[C@H](CC(=O)O)NC(=O)[C@H](CCCNC(=N)N)NC(=O)[C@H](C)NC(=O)[C@H](CCCNC(=N)N)NC(=O)[C@H](CCCCNC(=O)COCCOCCNC(=O)COCCOCCNC(=O)CC[C@H](NC(=O)CCCCCCCCCCCCCCCCC(=O)O)C(=O)O)NC(=O)[C@@H](NC(=O)[C@H](CC(=O)O)NC(=O)[C@H](CC(C)C)NC(=O)[C@](C)(Cc1ccccc1)NC(=O)[C@H](CCCCN)NC(=O)[C@H](CO)NC(=O)[C@@H](NC(=O)[C@H](CC(=O)O)NC(=O)[C@H](CO)NC(=O)[C@@H](NC(=O)[C@H](Cc1ccccc1)NC(=O)[C@@H](NC(=O)CNC(=O)[C@H](CCC(N)=O)NC(=O)C(C)(C)NC(=O)[C@@H](N)Cc1c[nH]cn1)[C@@H](C)O)[C@@H](C)O)C(C)C)[C@@H](C)O)C(C)C)C(=O)N[C@@H](CC(C)C)C(=O)NC(C)(C)C(=O)N[C@H](C(=O)N[C@@H](CCC(=O)O)C(N)=O)[C@@H](C)O
